Results: patent US20080274112A1, “Nogo Receptor Antagonists” (priority 2003, published 2008)

What was measured:
Assay type in all cases: binding
[1] = target: T1, rat NgR1 (sNgR310) fragments (Rattus norvegicus, UniProt Q99M75, A303T/C287S/E284G); test: Western blot of acid/CNBr fragments of sNgR310 probed with 7E11
T1 construct: made in house
T1 sequence (Q99M75 123-310 E284G/C287S/A303T): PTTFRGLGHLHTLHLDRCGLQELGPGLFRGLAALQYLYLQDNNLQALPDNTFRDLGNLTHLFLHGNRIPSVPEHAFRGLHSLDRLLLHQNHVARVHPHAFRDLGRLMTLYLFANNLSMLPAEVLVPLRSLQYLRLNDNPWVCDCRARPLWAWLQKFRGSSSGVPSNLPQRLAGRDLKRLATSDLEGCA
Method: (§1) A recombinant fragment of the rat NgR1 that contains all 8 LRR domains and the N- and C-terminal caps (sNgR310) was treated with either acid or cyanogen bromide (CNBr) and separated the fragments by gel electrophoresis. Untreated sNgR310 migrates with an apparent molecular weight of 42 kDa. Acid treatment of sNgR310 produced two major cleavage products of 15 kDa (aa 27-aa 122) and 30 kDa (aa 123-aa 310). CNBr treatment generated three fragments, a 33/35 kDa doublet (aa 27-aa 229), which may represent fragments with heterogeneous glycosylation, a 10 kDa product (aa 241-aa 310), and an 11-amino-acid fragment (aa 230-aa 240), which is not retained on the gel. […] Both the 15 kDa acid fragment and the 35 kDa CNBr fragment contained the sequence LDLSDNAQLRVVDPTT (SEQ ID NO: 1), consistent with 7E11 binding to a single epitope on NgR1.

[2] = target: T2, rat NgR1 (sNgR310) fragments (Rattus norvegicus, UniProt Q99M75, C43R/T53A); test: as above
T2 construct: made in house
T2 sequence (Q99M75 27-229 C43R/T53A): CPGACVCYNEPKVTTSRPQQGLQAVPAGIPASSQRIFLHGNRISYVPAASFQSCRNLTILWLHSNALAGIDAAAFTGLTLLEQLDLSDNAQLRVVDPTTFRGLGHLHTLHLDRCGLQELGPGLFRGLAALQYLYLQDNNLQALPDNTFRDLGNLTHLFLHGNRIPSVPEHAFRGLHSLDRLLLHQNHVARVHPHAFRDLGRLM
Method: as §1

[3] = target: T3, rat NgR1 (sNgR310) fragments (Rattus norvegicus, UniProt Q99M75, C43R/T53A); test: as above; remark: listed apart in the source
T3 construct: made in house
T3 sequence (Q99M75 27-122 C43R/T53A): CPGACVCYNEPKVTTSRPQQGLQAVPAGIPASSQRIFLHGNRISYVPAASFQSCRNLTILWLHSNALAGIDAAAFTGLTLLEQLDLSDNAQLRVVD
Method: as §1

[4] = target: T4, rat NgR1 (sNgR310) fragments (Rattus norvegicus, UniProt Q99M75, A303T/C287S/E284G); test: as above; remark: listed apart in the source
T4 construct: made in house
T4 sequence (Q99M75 241-310 E284G/C287S/A303T): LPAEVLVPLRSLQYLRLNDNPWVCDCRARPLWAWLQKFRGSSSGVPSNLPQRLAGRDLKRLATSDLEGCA
Method: as §1

[5] = target: polypeptide p-617 (SEQ ID NO: 1) (Rattus norvegicus, UniProt Q99M75); test: Specificity ELISA on polypeptide p-617
Description: To determine the specificity of the monoclonal and Fab-phage antibodies produced in Examples 1 and 2, we performed an ELISA using a panel of Nogo receptor-1 polypeptides. The panel consisted of sNogoR310-Fc (a fusion protein comprising amino acids 26-310 of rat Nogo receptor-1 and a rat Fc fragment), sNogoR344-Fc (see supra), polypeptide p-617 (SEQ ID NO: 1), polypeptide p-618 (a 19-amino acid polypeptide from the LRR7 region of rat Nogo receptor-1; FIG. 2; SEQ ID NO: 11) and polypeptides p-4 and p-5 (polypeptides from the LRR5 and LRRCT regions of Nogo receptor-1, respectively). Ovalbumin and BSA were used as controls.

- 7E11 binding to 30 kD acid fragment (aa 123-aa 310) [1]: did not bind
- 7E11 binding to 35 kDa CNBr fragment (aa 27-aa 229) [2]: bound
- 7E11 binding to 15 kDa acid fragment (aa 27-aa 122) [3]: bound
- 7E11 binding to 10 kDa CNBr fragment (aa 241-aa 310) [4]: did not bind
- binding to polypeptide p-617 [5]: specifically bound
B1: 7E11: murine monoclonal anti-Nogo receptor-1 antibody, IgG1 kappa, ATCC PTA-4587; immunogen rat Nogo receptor-1 residues 110-125 (antibody, V domains shown)
VH: VQLQESGAELVMPGASVKMSCKASGYTFTDYWMHWVKQRPGQGLEWIGAIDPSDSYSSYNQNFKGKATLTVDGSSSTAYMQLSSLTSEDSAVYYCARRITEAGAWFAYWGQGTTVT
VL: DVVMTQTPLSLPVSLGDQASISCRSSQSLVHSNGNTYLHWYLQKPGQSPKLLIYKVSNRFSGVPDRFSGSGSGTDFTLKISRVDAEDLGVYFCSQSTHVPFTFGGGTKLEIKRADAAPTVSISHH
